Measurements: article PMC7385628, “Molecular determinants for dsDNA translocation by the transcription-repair coupling and evolvability factor Mfd”

Legend:
[1] = system: Mfd D7-AAA;H842A (Escherichia coli); assay: fluorescence anisotropy; conditions: 10 nM labeled DNA, 2 mM nucleotide (ADP-AlFx from ADP, 10 mM NaF, 2 mM AlCl3), buffer, pH and temperature not in the material. …
Mfd wild type [2] = biological target: T1, Mfd wild type (Escherichia coli, UniProt P30958 1-1148); assay: fluorescence anisotropy; conditions: 10 nM labeled DNA, 2 mM nucleotide (ADP-AlFx from ADP, 10 mM NaF, 2 mM AlCl3), buffer, pH and temperature not in the material. …
Mfd wild type [3] = biological target: T1, Mfd wild type; assay: cryo-EM structure (5.5 A); 2 mM ADP, 10 mM NaF, 1 mM AlCl3, Mg2+; Fluorescence anisotropy, 10 nM labeled DNA, 2 mM nucleotide (ADP-AlFx from ADP, 10 mM NaF, 2 mM AlCl3); buffer, pH and temperature not in the material. Cryo-EM: Mfd in 20 mM Tris-HCl pH 8, 100 mM NaCl, 20 mM MgCl2, 2 mM TCEP; conditions: protein: recombinant; tags: N-terminal His tag, cleaved with PreScission; blunt

T1 sequence (P30958 whole entry): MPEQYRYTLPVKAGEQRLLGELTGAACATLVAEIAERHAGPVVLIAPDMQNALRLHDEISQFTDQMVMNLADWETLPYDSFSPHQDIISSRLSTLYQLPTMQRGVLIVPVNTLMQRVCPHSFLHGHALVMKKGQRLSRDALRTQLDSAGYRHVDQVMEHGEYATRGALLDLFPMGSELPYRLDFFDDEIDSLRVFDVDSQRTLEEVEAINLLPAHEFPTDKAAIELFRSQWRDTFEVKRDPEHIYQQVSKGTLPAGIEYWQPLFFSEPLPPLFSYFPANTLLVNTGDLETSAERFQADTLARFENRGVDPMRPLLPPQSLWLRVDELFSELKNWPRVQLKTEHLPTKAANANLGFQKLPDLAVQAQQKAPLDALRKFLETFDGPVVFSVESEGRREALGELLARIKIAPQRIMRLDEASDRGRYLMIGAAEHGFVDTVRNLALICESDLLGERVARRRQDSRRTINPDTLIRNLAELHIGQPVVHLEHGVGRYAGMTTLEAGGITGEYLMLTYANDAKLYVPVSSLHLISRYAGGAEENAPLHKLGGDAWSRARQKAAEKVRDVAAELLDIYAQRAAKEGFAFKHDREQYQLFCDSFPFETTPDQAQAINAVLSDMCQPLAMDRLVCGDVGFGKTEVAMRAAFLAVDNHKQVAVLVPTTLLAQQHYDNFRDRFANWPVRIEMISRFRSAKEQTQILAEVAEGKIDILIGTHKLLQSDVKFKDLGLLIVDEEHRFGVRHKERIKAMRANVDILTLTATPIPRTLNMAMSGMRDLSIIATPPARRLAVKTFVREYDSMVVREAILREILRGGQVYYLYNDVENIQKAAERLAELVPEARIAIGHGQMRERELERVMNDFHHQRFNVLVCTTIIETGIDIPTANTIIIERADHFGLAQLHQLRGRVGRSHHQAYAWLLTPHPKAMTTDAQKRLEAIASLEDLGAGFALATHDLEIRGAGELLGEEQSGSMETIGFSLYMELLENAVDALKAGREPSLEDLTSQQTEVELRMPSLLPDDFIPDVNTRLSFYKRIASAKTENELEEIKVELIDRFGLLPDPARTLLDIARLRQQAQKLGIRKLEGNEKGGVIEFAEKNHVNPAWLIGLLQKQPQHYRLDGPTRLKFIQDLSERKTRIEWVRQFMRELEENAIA

HEX-labeled 40mer dsDNA
Kd [1]: 0.127 µM
Kd ([1]; 2 mM ATPgS): 0.927 µM
Kd (Mfd wild type [2]; 2 mM ADP-AlFx): 0.024 µM
Kd (Mfd wild type [2]; 2 mM ATPgS): 0.151 µM

B1: 21mer dsDNA (cryo-EM) (dsDNA)
DNA 1: ATAGGATACTTACAGCCATCG
DNA 2: CGATGGCTGTAAGTATCCTAT
binding result (Mfd wild type [3]): binds
